Columns and labels:
[1] = target: HIV-1 strain CAP210.2.00.E8 envelope (gp120) (HIV-1); assay: cell-based or functional assay
[2] = target: HIV-1 strain Du172.17 envelope (gp120) (HIV-1); assay: cell-based or functional assay
[3] = target: HIV-1 strain SC422661.8 envelope (gp120) (HIV-1); assay: cell-based or functional assay
[4] = target: HIV-1 strain CAP45.2.00.G3 envelope (gp120) (HIV-1); assay: cell-based or functional assay
[5] = target: HIV-1 strain TRO.11 envelope (gp120) (HIV-1); assay: cell-based or functional assay
[6] = target: HIV-1 strain AC10.0.29 envelope (gp120) (HIV-1); assay: cell-based or functional assay
[7] = target: Env of HIV-1 strain CAP45.2.00.G3 (HIV-1); assay: cell-based or functional assay
[8] = target: Env of HIV-1 strain TRO.11 (HIV-1); assay: cell-based or functional assay
[9] = target: Env of HIV-1 strain SC422661.8 (HIV-1); assay: cell-based or functional assay
[10] = target: Env of HIV-1 strain CAP210.2.00.E8 (HIV-1); assay: cell-based or functional assay
[11] = target: the viral strains including SC422661.8, TRO0.11, CAP45.2.00G3, CAP210.2.00E8, Du172.17, and AC10.0.29; assay: cell-based or functional assay
[12] = target: Env of HIV-1 strain AC10.0.29 (HIV-1); assay: cell-based or functional assay
[13] = target: Env of HIV-1 strain Du172.17 (HIV-1); assay: cell-based or functional assay
[14] = target: HIV-1 Env of strain Du172.17 (HIV-1); assay: cell-based or functional assay
[15] = target: HIV-1 Env of strain SC422661.8 (HIV-1); assay: cell-based or functional assay
[16] = target: HIV-1 Env of strain AC10.0.29 (HIV-1); assay: cell-based or functional assay
[17] = target: HIV-1 Env of strain TRO.11 (HIV-1); assay: cell-based or functional assay
[18] = target: HIV-1 Env of strain CAP210.2.00.E8 (HIV-1); assay: cell-based or functional assay
[19] = target: HIV-1 Env of strain CAP45.2.00.G3 (HIV-1); assay: cell-based or functional assay
[20] = target: CAP244.2.00.D3 gp120 core (HIV-1)
[21] = target: 93TH057 gp120 core (HIV-1)
[22] = target: Q259.d2.17 gp120 core (HIV-1)

B1: 12A12^Y54W IgG (antibody, name in Kabat numbering, V domains shown)
VH: SQHLVQSGTQVKKPGASVRISCQASGYSFTDYVLHWWRQAPGQGLEWMGWIKPVWGARNYARRFQGRINFDRDIYREIAFMDLSGLRSDDTALYFCARDGSGDDTSWHLDPWGQGTLVIVSA
VL: DIQMTQSPSSLSASVGDRVTITCQAGQGIGSSLQWYQQKPGKAPKLLVHGASNLHRGVPSRFSGSGFHTTFSLTISGLQRDDFATYFCAVLEFFGPGTKVEIKR
neutralization IC50 [1]: > 50 µg/mL | neutralization IC50 [2]: 0.1 µg/mL | neutralization IC50 [3]: 0.2 µg/mL | neutralization IC50 [4]: 0.2 µg/mL | neutralization IC50 [5]: 0.2 µg/mL | neutralization IC50 [6]: 0.5 µg/mL

B2: 3BNC60 (antibody, V domains shown)
VH: QVHLSQSGAAVTKPGASVRVSCEASGYKISDHFIHWWRQAPGQGLQWVGWINPKTGQPNNPRQFQGRVSLTRQASWDFDTYSFYMDLKAVRSDDTAIYFCARQRSDFWDFDVWGSGTQVTVSS
VL: DIQMTQSPSSLSARVGDTVTITCQANGYLNWYQQRRGKAPKLLIYDGSKLERGVPARFSGRRWGQEYNLTINNLQPEDVATYFCQVYEFIVPGTRLDLKRTVA
IC50 [7]: 43.2 µg/mL | IC50 [8]: 0.018 µg/mL | IC50 [9]: 0.042 µg/mL | IC50 [10]: 10.6 µg/mL | IC50 (averaged across the strains) [11]: 0.3 µg/mL | IC50 [12]: > 50 µg/mL | IC50 [13]: 1.4 µg/mL

B3: 3BNC55 T54W IgG (antibody, name in Kabat numbering, V domains shown)
VH: QVQLVQSGTAVKRPGASVRVSCQASGYTFTDYFIYWWRQAPGQGLEWLGWINPLWSQPSYPSRFQGRLTLTRDTFDEMLYMDLRGLRSDDTGIYFCARRHSDYCDFDIWGSGTQIIVSS
VL: DIQMTQSPSSLSASVGDKVTITCQTSAGYLNWYQQRRGRAPKLLMYDGSRLVTGVPSRFSGRRWGTQYNLTIGSLQPEDIATYYCQVYEFFGPGTRLDLKS
neutralization IC50 [1]: > 50 µg/mL | neutralization IC50 [2]: > 50 µg/mL | neutralization IC50 [3]: 0.6 µg/mL | neutralization IC50 [4]: > 50 µg/mL | neutralization IC50 [5]: > 50 µg/mL | neutralization IC50 [6]: > 50 µg/mL

B4: NIH45-46 G54I IgG (antibody, name in Kabat numbering, V domains shown)
VH: QVRLSQSGGQMKKPGESMRLSCRASGYEFLNCPINWIRLAPGRRPEWMGWLKPRIGAVNYARKFQGRVTMTRDVYSDTAFLELRSLTSDDTAVYFCTRGKYCTARDYYNWDFEHWGRGAPVTVSS
VL: EIVLTQSPATLSLSPGETAIISCRTSQSGSLAWYQQRPGQAPRLVIYSGSTRAAGIPDRFSGSRWGADYNLSISNLESGDFGVYYCQQYEFFGQGTKVQVDI
neutralization IC50 [14]: > 50 µg/mL | neutralization IC50 [15]: 0.1 µg/mL | neutralization IC50 [16]: 8.6 µg/mL | neutralization IC50 [17]: 10 µg/mL | neutralization IC50 [18]: > 50 µg/mL | neutralization IC50 [19]: > 50 µg/mL

B5: NIH45-46 G54M IgG (antibody, name in Kabat numbering, V domains shown)
VH: QVRLSQSGGQMKKPGESMRLSCRASGYEFLNCPINWIRLAPGRRPEWMGWLKPRMGAVNYARKFQGRVTMTRDVYSDTAFLELRSLTSDDTAVYFCTRGKYCTARDYYNWDFEHWGRGAPVTVSS
VL: EIVLTQSPATLSLSPGETAIISCRTSQSGSLAWYQQRPGQAPRLVIYSGSTRAAGIPDRFSGSRWGADYNLSISNLESGDFGVYYCQQYEFFGQGTKVQVDI
neutralization IC50 [14]: > 50 µg/mL | neutralization IC50 [15]: 0.06 µg/mL | neutralization IC50 [16]: 1.5 µg/mL | neutralization IC50 [17]: 0.3 µg/mL | neutralization IC50 [18]: > 50 µg/mL | neutralization IC50 [19]: > 50 µg/mL

B6: NIH45-46^G54W Fab (C-terminal 6x-His tagged heavy chain, SPR) (Fab, V domains shown)
VH: QVRLSQSGGQMKKPGESMRLSCRASGYEFLNCPINWIRLAPGRRPEWMGWLKPRWGAVNYARKFQGRVTMTRDVYSDTAFLELRSLTSDDTAVYFCTRGKYCTARDYYNWDFEHWGRGAPVTVSS
VL: EIVLTQSPATLSLSPGETAIISCRTSQSGSLAWYQQRPGQAPRLVIYSGSTRAAGIPDRFSGSRWGADYNLSISNLESGDFGVYYCQQYEFFGQGTKVQVDI
Kd [20]: 37 nM | kon [20]: 22000 M⁻¹ s⁻¹ | Kd [21]: 63 nM | koff [21]: 0.0016 s⁻¹ | kon [21]: 26000 M⁻¹ s⁻¹ | Kd [22]: 48 nM | koff [22]: 0.0017 s⁻¹ | kon [22]: 34000 M⁻¹ s⁻¹

B7: NIH45-46 G54H IgG (antibody, name in Kabat numbering, V domains shown)
VH: QVRLSQSGGQMKKPGESMRLSCRASGYEFLNCPINWIRLAPGRRPEWMGWLKPRHGAVNYARKFQGRVTMTRDVYSDTAFLELRSLTSDDTAVYFCTRGKYCTARDYYNWDFEHWGRGAPVTVSS
VL: EIVLTQSPATLSLSPGETAIISCRTSQSGSLAWYQQRPGQAPRLVIYSGSTRAAGIPDRFSGSRWGADYNLSISNLESGDFGVYYCQQYEFFGQGTKVQVDI
neutralization IC50 [14]: > 50 µg/mL | neutralization IC50 [15]: 0.09 µg/mL | neutralization IC50 [16]: 0.6 µg/mL | neutralization IC50 [17]: 0.2 µg/mL | neutralization IC50 [18]: > 50 µg/mL | neutralization IC50 [19]: > 50 µg/mL

B8: NIH45-46 G54L IgG (antibody, name in Kabat numbering, V domains shown)
VH: QVRLSQSGGQMKKPGESMRLSCRASGYEFLNCPINWIRLAPGRRPEWMGWLKPRLGAVNYARKFQGRVTMTRDVYSDTAFLELRSLTSDDTAVYFCTRGKYCTARDYYNWDFEHWGRGAPVTVSS
VL: EIVLTQSPATLSLSPGETAIISCRTSQSGSLAWYQQRPGQAPRLVIYSGSTRAAGIPDRFSGSRWGADYNLSISNLESGDFGVYYCQQYEFFGQGTKVQVDI
neutralization IC50 [14]: > 50 µg/mL | neutralization IC50 [15]: 0.1 µg/mL | neutralization IC50 [16]: 1.7 µg/mL | neutralization IC50 [17]: 0.3 µg/mL | neutralization IC50 [18]: > 50 µg/mL | neutralization IC50 [19]: > 50 µg/mL
